According to US20240247080A1, “GLP1/GIP/NPY2 RECEPTOR TRIPLE AGONISTS” (Boehringer Ingelheim International GmbH, priority 2022, published 2024):
Changes are numbered by the printed parent chain. Starred links: 1 amine or outer side, 2 acyl side, 3 side chain; linkers in the order of their positions; H or OH if unused. Non-standard residues stand in square brackets, D forms with d. Groups on a side chain read outwards from the residue. No end group written: not given here. *: point of attachment. C18 diacid = O=C(O)CCCCCCCCCCCCCCCCC(=O)*; γGlu = O=C(O)[C@H](CCC(=O)[*:2])N[*:1]; Aib = CC(C)(N)C(=O)O

T1: human GIP receptor (human, UniProt P48546 22-466)
T1 sequence (looked up): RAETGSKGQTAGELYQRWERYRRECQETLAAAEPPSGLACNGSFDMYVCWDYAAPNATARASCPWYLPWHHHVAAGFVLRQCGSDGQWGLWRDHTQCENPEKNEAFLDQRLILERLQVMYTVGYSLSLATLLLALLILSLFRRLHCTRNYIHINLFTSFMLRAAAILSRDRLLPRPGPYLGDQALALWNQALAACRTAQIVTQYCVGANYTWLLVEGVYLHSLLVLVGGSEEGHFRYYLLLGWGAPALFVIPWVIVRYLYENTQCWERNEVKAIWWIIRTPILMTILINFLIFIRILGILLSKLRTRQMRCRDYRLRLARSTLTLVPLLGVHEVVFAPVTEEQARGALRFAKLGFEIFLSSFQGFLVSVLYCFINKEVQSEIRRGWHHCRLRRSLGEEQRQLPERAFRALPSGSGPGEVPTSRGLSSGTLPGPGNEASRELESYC

T2: human neuropeptide Y2 (NPY2) receptor (human, UniProt P49146 1-381)
T2 sequence (looked up): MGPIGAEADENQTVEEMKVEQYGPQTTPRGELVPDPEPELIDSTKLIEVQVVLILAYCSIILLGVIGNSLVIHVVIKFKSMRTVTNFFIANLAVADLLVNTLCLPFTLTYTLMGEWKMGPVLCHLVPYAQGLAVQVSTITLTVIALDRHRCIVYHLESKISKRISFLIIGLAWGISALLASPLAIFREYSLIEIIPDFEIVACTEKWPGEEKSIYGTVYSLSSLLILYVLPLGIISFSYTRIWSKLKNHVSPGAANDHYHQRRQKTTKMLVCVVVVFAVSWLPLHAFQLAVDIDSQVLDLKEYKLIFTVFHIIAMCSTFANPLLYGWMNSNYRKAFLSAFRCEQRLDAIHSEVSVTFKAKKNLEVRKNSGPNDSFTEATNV

T3: human neuropeptide Y2 receptor (human, UniProt P49146 1-381)
T3 sequence (looked up): T2 sequence (looked up)

T4: human GIP receptor (human, UniProt P48546 22-466)
T4 sequence (looked up): T1 sequence (looked up)

B1: Compound 259 (peptide)
peptide: YXEGTFTSDYSIXLEKQAQXAFVEWLIKGGPSSGASLRHYYNWLTRQRY
modifications: Aib at 2, 13, 20; K28 side chain acylated with C18DA-gGlu-gGlu-gGlu-gGlu-gGlu-gGlu-eLys; C-terminal amide (NH2)
B2: Compound 260 (peptide)
peptide: B1 peptide
modifications: Aib at 2, 13, 20; K28 side chain acylated with C18DA-gGlu-gGlu-gGlu-gGlu-gGlu-AHX; C-terminal amide (NH2)
B3: Compound 261 (peptide)
peptide: B1 peptide
modifications: Aib at 2, 13, 20; K28 side chain acylated with C18DA-gGlu-gGlu-gGlu-gGlu-gGlu-OEG-OEG; C-terminal amide (NH2)
B4: Compound 83 (peptide)
peptide: B1 peptide
modifications: Aib at 2, 13, 20; NMeR 48; K28 side chain: C20DA-gGlu-gGlu-gGlu-gGlu-gGlu-gGlu-eLys; C-terminal NH2
B5: Compound 80 (peptide)
peptide: B1 peptide with S33Y, G34Y, A35V
modifications: Aib at 2, 13, 20; K28 side chain: C20DA-gGlu-gGlu-gGlu-gGlu-gGlu-gGlu-eLys; C-terminal NH2
B6: Compound 12 (peptide)
peptide: B1 peptide with E24Q, S32E, G34P
modifications: Aib at 2, 13, 20; K28 side chain: C18DA-gGlu-gGlu-gGlu-gGlu-gGlu; C-terminal NH2
B7: Compound 15 (peptide)
peptide: B1 peptide with E24Q, G34Y, A35V
modifications: Aib at 2, 13, 20; K28 side chain: C20DA-gGlu-gGlu-gGlu-gGlu-gGlu-gGlu-eLys; C-terminal NH2
B8: Compound 79 (peptide)
peptide: B1 peptide with W43L, L44X
modifications: Aib at 2, 13, 20, 44; K28 side chain: C20DA-gGlu-gGlu-gGlu-gGlu-gGlu-gGlu-eLys; C-terminal NH2
B9: Compound 16 (peptide)
peptide: B1 peptide with K16X, Q17E, A21K
modifications: Aib at 2, 13, 16, 20; K28 side chain: C20DA-gGlu-gGlu-gGlu-gGlu-gGlu-gGlu-eLys; C-terminal NH2

Biological target: T1, human GIP receptor
Assay: cell-based or functional assay

Binder	EC50 hGIPR 0.5% hP (CreLuc) [nM]	EC50 hGIPR 100% hP (CreLuc) [nM]
B1	0.22	0.91
B2	0.31	2.53
B3	0.18	1.15
Y[Aib]EGTFTSDYSI[Aib]LEKQAE[Aib]AFVEWLIK([γGlu-γGlu-γGlu-γGlu-C18 diacid])GGPSEGASLRHYYNWLTRQRY-NH2 (also: TFA salt) [Compound 262]	0.08	0.53

Biological target: human GLP-1 receptor (human, UniProt P43220 24-463)
Assay: cell-based or functional assay

Binder	EC50, CreLuc assay, 0.5% hP [nM]	EC50, CreLuc assay, 100% hP [nM]
B4	0.17	2.87
B5	1.6	16.3
B6	0.11	4.76
B7	0.16	4.11
B8	0.11	2.09
B9	1.48	30.3

Biological target: T2, human neuropeptide Y2 (NPY2) receptor
Assay: cell-based or functional assay

Binder	EC50, CreLuc assay, 0.5% hP [nM]	EC50, CreLuc assay, 100% hP [nM]
B4	28.8	80.6
B5	12.8	54.8
B6	11.9	45.8
B7	6.01	15.4
B8	87.6	265
B9	28.8	197

Biological target: T3, human neuropeptide Y2 receptor
Assay: cell-based or functional assay

Binder	EC50 hNPY2R 0.5% hP (CreLuc) [nM]	EC50 hNPY2R 100% hP (CreLuc) [nM]
B1	10.7	29.3
B2	26.4	69.6
B3	24.1	64
Y[Aib]EGTFTSDYSI[Aib]LEKQAE[Aib]AFVEWLIK([γGlu-γGlu-γGlu-γGlu-C18 diacid])GGPSEGASLRHYYNWLTRQRY-NH2 (also: TFA salt) [Compound 262]	13.2	58.2

Biological target: human GLP-1 receptor (human, UniProt P43220 24-463)
Assay: cell-based or functional assay
Remark: another data set of the same source

Binder	EC50 hGLP1R 0.5% hP (CreLuc) [nM]	EC50 hGLP1R 100% hP (CreLuc) [nM]
B1	0.09	2.55
B2	0.13	2.78
B3	0.15	3.91
Y[Aib]EGTFTSDYSI[Aib]LEKQAE[Aib]AFVEWLIK([γGlu-γGlu-γGlu-γGlu-C18 diacid])GGPSEGASLRHYYNWLTRQRY-NH2 (also: TFA salt) [Compound 262]	0.13	4.28

Biological target: T4, human GIP receptor
Assay: cell-based or functional assay

Binder	EC50, CreLuc assay, 0.5% hP [nM]	EC50, CreLuc assay, 100% hP [nM]
B4	0.13	1.06
B5	0.79	6.76
B6	0.14	1.8
B7	0.32	2.43
B8	0.29	1.86
B9	0.66	4.53
